B1: recombinant ectodomain of human IFN-λ receptor 1 (hIFN-λR1) (receptor)
chain: RPRLAPPQNVTLLSQNFSVYLTWLPGLGNPQDVTYFVAYQSSPTRRRWREVEECAGTKELLCSMMCLKKQDLYNKFKGRVRTVSPSSKSPWVESEYLDYLFEVEPAPPVLVLTQTEEILSANATYQLPPCMPPLDLKYEVAFWKEGAGNKTLFPVTPHGQPVQITLQPAASEHHCLSARTIYTFSVPKYSKFSKPTCFLLEVPEANWA

Key:
Experiment in all cases: SPR
[1] = biological target: designed human interferon-λ3 variant hIFN-λ3-DE1, His-tagged (human, UniProt Q8IZI9)
[2] = biological target: B1
[3] = biological target: B1

B1
Kd [1]: 6.61 nM | koff [1]: 0.0244 s⁻¹

B2: wild-type human interferon-λ3 (hIFN-λ3-WT), His-tagged (ligand)
chain: VPVARLRGALPDARGCHIAQFKSLSPQELQAFKRAKDALEESLLLKDCKCRSRLFPRTWDLRQLQVRERPVALEAELALTLKVLEATADTDPALGDVLDQPLHTLHHILSQLRACIQPQPTAGPRTRGRLHHWLHRLQEAPKKESPGCLEASVTFNLFRLLTRDLNCVASGDLCV
Kd [2]: 7.67 nM | koff [3]: 0.0183 s⁻¹

Reference: publication PMC12866752 (2025)
